Results on four molecules are retold here after paper PMC3250504, “Identification and Characterization of a Mef2 Transcriptional Activator in Schistosome Parasites”.

Positions count from the first letter of the chain named.

Data set [1] concerns the target T1, MBP-SmMef2 (Schistosoma mansoni, UniProt G8JE45 1-730).
T1 sequence: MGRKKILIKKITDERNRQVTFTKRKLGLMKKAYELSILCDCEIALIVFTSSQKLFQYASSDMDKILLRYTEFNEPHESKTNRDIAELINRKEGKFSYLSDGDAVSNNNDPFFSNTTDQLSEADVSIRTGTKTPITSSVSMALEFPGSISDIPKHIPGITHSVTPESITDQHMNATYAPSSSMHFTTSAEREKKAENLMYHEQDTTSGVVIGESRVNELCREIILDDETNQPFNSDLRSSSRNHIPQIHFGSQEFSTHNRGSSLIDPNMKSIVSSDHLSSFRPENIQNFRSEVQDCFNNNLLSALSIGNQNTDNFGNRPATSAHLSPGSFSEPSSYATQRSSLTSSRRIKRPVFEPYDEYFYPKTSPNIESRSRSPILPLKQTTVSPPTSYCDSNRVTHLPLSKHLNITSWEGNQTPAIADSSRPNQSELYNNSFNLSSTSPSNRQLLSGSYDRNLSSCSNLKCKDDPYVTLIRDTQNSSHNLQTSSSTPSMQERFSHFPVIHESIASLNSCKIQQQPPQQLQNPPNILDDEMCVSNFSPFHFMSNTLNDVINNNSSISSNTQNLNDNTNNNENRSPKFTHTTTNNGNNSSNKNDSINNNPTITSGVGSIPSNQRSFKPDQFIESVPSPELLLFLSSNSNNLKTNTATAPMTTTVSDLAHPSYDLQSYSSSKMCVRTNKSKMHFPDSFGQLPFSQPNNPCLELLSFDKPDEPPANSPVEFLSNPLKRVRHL
Description: EMSA; 5 mM MgCl2, poly(dI-dC); LightShift kit 1x binding buffer, 2.5% glycerol, 5 mM MgCl2, 50 ng/uL poly(dI-dC), 0.05% NP-40, 180 fmol hot dsDNA, 1.4 ug protein, 20 min room temperature; 5%. The conditions noted are these: protein: recombinant; tags: N-terminal MBP (pMAL-c5x); chain copies: 2; label: 5' biotin on forward strand (hot); blunt. Background: In EMSA bound probe runs differently from free probe, usually more slowly.

The target in data set [2] is T1, MBP-SmMef2. Description: competition; 200x cold vs labeled AT12 or AT13; LightShift kit 1x binding buffer, 2.5% glycerol, 5 mM MgCl2, 50 ng/uL poly(dI-dC), 0.05% NP-40, 180 fmol hot dsDNA, 1.4 ug protein, 20 min room temperature; 5%. The conditions noted are these: protein: recombinant; tags: N-terminal MBP (pMAL-c5x); chain copies: 2; blunt.

B1: AT13 (M. polymorpha Mef2 site) (dsDNA)
DNA 1: GCTGAAGGATCTATATATAGGCGGATCGGC
DNA 2: GCCGATCCGCCTATATATAGATCCTTCAGC
For the molecule B1, the binding result with MBP-SmMef2 [1] is “binds”.

B2: AT11 (Drosophila Actin57B Mef2 site) (dsDNA)
DNA 1: B1 DNA 1 with A15T, A17T
DNA 2: B1 DNA 2 with T14A, T16A
As to B2, in the data set with MBP-SmMef2 [1], the binding result is “binds”.

B3: AT14 (Ndt80 MSE negative control) (dsDNA)
DNA 1: GCTGAAGGATGTCACAAAATGCGGATCGGC
DNA 2: GCCGATCCGCATTTTGTGACATCCTTCAGC
Turning to B3, in the data set with MBP-SmMef2 [2], the binding result is listed as “no binding”.

B4: AT12 (common Mef2 consensus) (dsDNA)
DNA 1: B1 DNA 1 with T14A, T16A
DNA 2: B1 DNA 2 with A15T, A17T
As to B4, the binding result with MBP-SmMef2 [1] is “binds”.
